Source: the supplement of paper PMC10567573

B1: GLTSCR2 (parent)
chain: LARRRRRRQARREAEADKPRRLGR

Variants of: B1
Experiment: protein stability index of a GFP-peptide fusion (GPS, HEK-293T) (PSI 1-6); higher = more stable
Conditions: c terminus: a fixed tail appended
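Further: lentivirally expressed fusions sorted by FACS into six bins by GFP to DsRed ratio, PSI derived from sequencing read proportions per bin multiplied by bin number.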

Protein stability index: each site, then its substitutions
R20: P 5.45 | T 4.82 | Q 4.6 | M 4.38 | H 5.18 | L 4.64 | N 4.75 | F 4.04 | W 4.41 | A 4.25 | V 4.65 | S 5.26 | D 4.11 | G 4.91 | C 4.45 | E 4.52 | Y 4.61 | I 4.36 | K 4.64
D17: P 4.33 | I 3.98 | Y 4.88 | G 4.24 | C 4.07 | R 4.82 | A 4.3 | F 4.73 | T 4.66 | K 4.99 | N 4.32 | Q 4.53 | W 4.33 | M 4.49 | L 4.52 | H 4.81 | E 5.31 | V 3.99
E13: H 4.13 | T 4.83 | V 4.35 | I 4.73 | K 4.37 | G 5.01 | Q 4.88 | A 4.51 | S 4.26 | C 5.01 | D 4.61 | Y 4.4 | W 4.51 | P 4.36 | N 4.59 | M 3.72 | F 4.04 | R 4.4 | L 4.46
E15: H 4.55 | G 4.43 | A 4.78 | I 4.63 | P 4.44 | V 4.64 | C 4.68 | M 4.72 | R 3.99 | S 4.12 | L 4.16 | N 5.4 | D 4.55 | Y 4.21 | F 4.36 | Q 4.52 | W 3.87 | K 3.6 | T 4.22
R21: D 4.65 | C 4.84 | E 4.8 | A 5.06 | L 4.36 | K 4.44 | I 3.94 | G 4.39 | P 3.66 | F 4.58 | N 4.73 | M 4.52 | H 3.99
P19: D 4.91 | L 3.91 | R 4.54 | V 4.08 | Q 4.19 | K 4.61 | E 4.64 | S 4.16 | N 4.58 | C 4.29 | M 4.08 | T 4.39 | Y 4.26 | G 4.57 | W 3.92 | A 3.92 | I 3.81 | H 4.09
R12: V 5.34 | W 4.34 | Y 4.51 | P 4.6 | T 4.98
A14: W 4.45 | G 3.91 | P 4.97 | M 4.34 | N 4.44 | D 4.49 | V 4.58 | Y 4.6 | F 4.11 | Q 4.8 | I 4.28 | R 4.52 | E 5.11 | H 4.34 | T 4.97 | S 4.7 | L 4.33 | K 4.61
K18: F 5.1 | S 4.74 | N 4.96 | E 5.03 | H 4.98 | Y 4.85 | V 5.01 | T 4.29 | Q 4.97 | L 5.11 | D 4.78 | P 5.41 | R 5.02 | A 4.89 | W 3.88 | M 5.14 | C 5.07 | G 4.91 | I 4.34
A16: D 4.82 | K 4.32 | I 4.22 | R 3.96 | E 4.8 | F 4.4 | W 3.73 | T 4.76 | P 4.61 | V 4.69 | L 3.29 | G 4.09 | S 3.77 | H 5.25 | Q 4.89 | M 4.97 | Y 4.61 | N 4.91 | C 4.48
